This is an account of results in patent US20240294635A1 (CHIA TAI TIANQING PHARMACEUTICAL GROUP, published 2024).

Numbering of substitutions follows the chain as printed. Names may count otherwise. Where two headings read alike, the source gives them in different places.

The target in assay [1] is T1, human CD47 protein, His Tag (ACRObiosystems, Cat. No. CD7-H5227) (human, UniProt Q08722 19-139).
T1 construct: bought reagent; also called CD47-His; hCD47-His Tag; not shown: His tag
As to the kind of experiment: ELISA, plate coated with CD47-His. (In an ELISA, binding on a coated surface is turned into a signal by an enzyme label.)

Assay [2] concerns the target T2, CD47 on the red cell surface (Homo sapiens (Human), UniProt Q08722 19-323). As to the kind of experiment: flow cytometry on fixed red cells, antibody 10 µg/mL. In general terms: In flow cytometry, cells or beads pass a laser one at a time.
Method: (§1) Anticoagulated blood was collected and well mixed with an equal amount of normal saline. The mixture was centrifuged at 2000 rpm/min for 5 min, and the supernatant was removed. […] In the first two washings, the mixture was centrifuged at 2000 rpm/min for 5 min, and in the last washing, the mixture was centrifuged at 2000 rpm/min for 10 min, and the supernatant was removed.
Assay [3] addresses T3, CD47 on HL60 cells (UniProt Q08722 19-323, limits assumed). The experiment in a line: cell-based or functional assay.
The target in assay [4] is T2, CD47 on the red cell surface. As to the kind of experiment: cell-based or functional assay.
Assay [5] addresses T1, human CD47 protein, His Tag …. The experiment in a line: ELISA, CD47-His coated, competition with Human-SIRPα-mFc.
Method: (§2) The plate was let stand at 2-8° C. overnight. The wells were aspirated to remove the coating buffer and blocked with 100 μL/well of a blocking solution (PBS with 1% (w/v) bovine serum albumin (BSA, Sigma, Cat. No. B2064-100G)) by incubation at 37° C. for 1 h. The 96-well plate was washed with a washing buffer (PBS with 0.01% (w/v) Tween 20 (Sigma, Cat. No. P9416-100ML)). […] After the 96-well plate was washed with PBS washing buffer, anti-CD47 chimeric antibodies or anti-CD47 humanized antibodies (see Table 8 for chimeric antibodies, and see Table 9 for humanized antibodies) were added. 4-fold dilution was performed with PBS buffer from a starting concentration of 20 μg/mL, with 8 gradients obtained. The plate was incubated at room temperature for 1.5 h. […] After the 96-well plate was washed with PBS buffer, 100 μL/well of a substrate solution TMB (TIANGEN, Cat. No. PA107-01) was added, and the plate was incubated at room temperature for color development for 10 min. 100 μL/well of 1 M H₂SO₄ was added to stop the reaction. Colorimetric signals were generated and read at 450 nm using a multifunctional microplate reader (manufacturer: PerkinElmer; model: EnVision). Data were analyzed using GraphPad Prism5, and EC₅₀ was calculated.
Assay [6] has the same target. The experiment in a line: Biacore SPR, 25 C, antibody captured on CM5 chip. In general terms: SPR reads the build-up and loss of mass on a sensor chip optically.
The target of assay [7] is T4, cynomolgus/rhesus macaque CD47 protein, His Tag (ACRObiosystems, Cat. No. CD7-C52H1) (cynomolgus monkey (cynomolgus/rhesus …, UniProt A0A2K5X523 19-141)).
T4 construct: bought reagent; also called Cynomolgus monkey CD47 protein
The experiment in a line: Biacore SPR, 25 C, antibody captured on CM5 chip.

The target of assay [8] is T5, human CD47 protein on CHO-K1-CD47 cells (human, UniProt Q08722 19-323).
T5 construct: whole, on cells; also called CHO-K1 cells expressing human CD47 protein
As to the kind of experiment: cell binding, CHO-K1-CD47 cells, high content imaging.
Method: (§3) A cell binding assay of anti-CD47 antibodies (chimeric or humanized) was performed based on the binding to a CHO-K1 cell line stably expressing CD47. CHO-K1-CD47 cells (CHO-K1 cells expressing human CD47 protein) were added to each well of a 96-well plate (Eppendorf, Cat. No. C030730.119) at 1.2×10⁴ cells per well and incubated with anti-CD47 antibodies (20 μg/mL, 1:4 dilution in PBS) at room temperature for 1-2 h. […] The cells were incubated at room temperature for 30 min. The cells were washed three times with PBS buffer. A nuclear dye Hoechst (Sigma, Cat. No. B2261) was diluted with PBS buffer at a dilution ratio of 1:500 and then added to each well at 100 μL/well for staining for 10 min. The cells were washed 3 times with PBS and analyzed using a high content screening system (manufacturer: PerkinElmer; model: Operetta).

The target in assay [9] is T2, CD47 on the red cell surface. As to the kind of experiment: flow cytometry on fixed red cells, antibody 1 µg/mL.
Method: as §1
The target is the same in assay [10]. As to the kind of experiment: flow cytometry on fixed red cells, antibody 10 µg/mL. The source holds these as a separate data set.
Method: as §1
For assay [11], the target named is T5, human CD47 protein on CHO-K1-CD47 cells. As to the kind of experiment: cell binding, CHO-K1-CD47 cells, high content imaging. The source holds these as a separate data set.
Method: as §3
Assay [12] concerns the target T1, human CD47 protein, His Tag …. As to the kind of experiment: Biacore SPR, 25 C, antibody captured on CM5 chip. The source holds these as a separate data set.
Assay [13] has as its target T4, cynomolgus/rhesus macaque CD47 protein, …. The experiment in a line: Biacore SPR, 25 C, antibody captured on CM5 chip. This is another data set of the same source.
The target in assay [14] is T2, CD47 on the red cell surface. The experiment in a line: flow cytometry on fixed red cells, antibody 1 µg/mL. This is another data set of the same source.
Method: as §1
Assay [15] addresses T3, CD47 on HL60 cells. As to the kind of experiment: cell-based or functional assay. This is another data set of the same source.
In assay [16] the target is T1, human CD47 protein, His Tag …. As to the kind of experiment: ELISA, plate coated with CD47-His. The source holds these as a separate data set.
Method: An ELISA binding assay was performed based on human CD47 protein and anti-CD47 chimeric antibodies or anti-CD47 humanized antibodies. […] The wells were aspirated, and non-specific binding sites were blocked by adding 100 L/well of a blocking solution (PBS with 1% (w/v) bovine serum albumin (BSA, Sigma, Cat. No. B2064-100G)) and incubating the plate at 37° C. for 1 h. After the 96-well plate was washed three times with a washing buffer (PBS with 0.01% (w/v) Tween 20 (Sigma, Cat. No. P9416-100ML)), 100 μL/well of 1:4 serial dilutions (from 30 g/mL) of anti-CD47 antibodies (see Table 3 for chimeric antibodies, and see Table 4 for humanized antibodies) in blocking solution were added, and the plate was incubated at room temperature for 2 h. […] After the 96-well plate was washed, 100 μL/well of a substrate solution TMB (TIANGEN, Cat. No. PA107-01) was added, and the 96-well plate was incubated at room temperature for 10 min. 100 μL/well of a stop solution (1 M H₂SO₄) was added to stop the reaction. Colorimetric signals were generated and read at 450 nm using a multifunctional microplate reader (manufacturer: PerkinElmer; model: EnVision). Data were analyzed using GraphPad Prism5, and EC₅₀ was calculated.
For another assay, the target named is T6, CD47 on Jurkat cells (UniProt Q08722 19-323, limits assumed).
T6 construct: whole, on cells; Jurkat is a human T cell line
The experiment in a line: flow cytometry on Jurkat cells, competition with Human-SIRPα-mFc.

Assay [17] deals with T1, human CD47 protein, His Tag …. As to the kind of experiment: ELISA, CD47-His coated, competition with Human-SIRPα-mFc. This is another data set of the same source.
Method: as §2
The target is the same in assay [18]. The experiment in a line: ELISA, CD47-His coated, competition with Human-SIRPα-mFc; Blocking ELISA; CD47-His coated on plate, SIRPα-mFc bound first, antibody from 20 µg/mL, mouse Fc detected.
Method: as §2
The target is the same in assay [19]. As to the kind of experiment: Biacore SPR, 25 C, antibody captured on CM5 chip; Biacore at 25 C; antibody captured on the chip, soluble CD47-His as analyte.

T4 sequence (A0A2K5X523 entry or part of it limits assumed): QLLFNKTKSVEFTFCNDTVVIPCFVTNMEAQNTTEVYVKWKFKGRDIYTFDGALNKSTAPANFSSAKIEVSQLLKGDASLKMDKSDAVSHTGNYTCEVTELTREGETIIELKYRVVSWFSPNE
Method for CD47 on Jurkat cells: The plate was incubated at room temperature for 1 h. After the plate was washed twice with PBS buffer, 100 μL of anti-CD47 chimeric antibodies (Table 7) was added to each well. 4-fold dilution was performed with PBS buffer from a starting concentration of 20 μg/mL, with 8 gradients obtained. The plate was incubated at room temperature for 1-2 h. […] The plate was incubated at room temperature for 1 h and washed 3 times with PBS buffer.

B1: hz16E5-3.3 (antibody, human IgG4 S228P, kappa)
heavy: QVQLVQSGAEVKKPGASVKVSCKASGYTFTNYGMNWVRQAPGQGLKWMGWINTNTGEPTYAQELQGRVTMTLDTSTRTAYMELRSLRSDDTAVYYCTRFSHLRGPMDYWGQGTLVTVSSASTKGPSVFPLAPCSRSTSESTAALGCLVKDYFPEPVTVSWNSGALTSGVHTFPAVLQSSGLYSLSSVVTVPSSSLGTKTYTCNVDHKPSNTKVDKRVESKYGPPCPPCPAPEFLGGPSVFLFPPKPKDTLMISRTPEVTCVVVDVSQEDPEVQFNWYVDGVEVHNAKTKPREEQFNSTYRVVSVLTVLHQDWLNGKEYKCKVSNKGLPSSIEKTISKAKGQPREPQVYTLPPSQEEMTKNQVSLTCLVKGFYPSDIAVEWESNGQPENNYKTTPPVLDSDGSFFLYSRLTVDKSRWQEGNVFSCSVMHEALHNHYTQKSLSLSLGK
light: DAQMTQSPSSLSASVGDRVTITCRSSQSLVHSNGYTYLHWYQQKPGKAPKLLIYKVSNRFSGVPSRFSGSGSGTDFTLTISSLQPEDFATYYCSQSTHVPPTFGQGTKLEIKRTVAAPSVFIFPPSDEQLKSGTASVVCLLNNFYPREAKVQWKVDNALQSGNSQESVTEQDSKDSTYSLSSTLTLSKADYEKHKVYACEVTHQGLSSPVTKSFNRGEC
notes: humanized 16E5, full-length heavy and light chains
The EC50 is the concentration giving half of the maximal effect. In general, IC50 refers to the concentration needed to halve the response being measured. For orientation: Kd means the constant that tells how readily two partners part at equilibrium. B1: the EC50 in assay [1] was 0.241 µg/mL; in [8] it was 40.5 µg/mL. Besides, the figures for the MFI in assay [2] and in assay [9] were 3870 MFI and 848 MFI, respectively. Besides, the “rate of phagocytosis, antibody 1 µg/mL” value with CD47 on HL60 cells [3] is 11.6%. For the same molecule, the “rate of phagocytosis, antibody 10 µg/mL” value in the assay with CD47 on HL60 cells [3] worked out at 4.7%. Moreover, the “red cell agglutination, lowest concentration causing it” value in [4] was 3.3 µg/mL. The IC50 in [5] worked out at 2 µg/mL. The Kd was determined as 7.13 nM in [6] and 1.87 nM in [7].

B2: Xi2B2 (antibody, human IgG4 S228P, kappa, V domains shown)
VH: EVMLVESGGGLVQPGGSLKLSCAASGFTFSNYYMSWVRQTPEKRLEWVAYISSGGGSTYYPDSVKGRFTISRDNAKNTLYLQMSSLKSEDTAMYYCAWFAYWGQGTLVTVSA
VL: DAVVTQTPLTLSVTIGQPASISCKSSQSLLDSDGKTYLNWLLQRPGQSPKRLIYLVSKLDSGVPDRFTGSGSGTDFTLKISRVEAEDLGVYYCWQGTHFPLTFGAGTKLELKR
notes: mouse variable regions on human IgG4 (EU S228P) and human kappa constant regions; also called chimeric 2B2 antibody
Turning to B2, the MFI in assay [10] came out at 608 MFI; in assay [14] it was 656 MFI. Also, the concentration giving a half-maximal response (EC50) in [11] stood at 30.8 µg/mL; in assay [16], 0.349 µg/mL. In addition, the Kd in [12] stood at 7.48 nM; in assay [13] it was 1.2 nM. The “rate of phagocytosis, antibody 1 µg/mL” value in the assay with CD47 on HL60 cells [15] was 7.3%. The “rate of phagocytosis, antibody 10 µg/mL” value in the assay with CD47 on HL60 cells [15] came to 4.1%.

B3: Xi3F10 (antibody, human IgG4 S228P, kappa, V domains shown)
VH: EVQLQQSVAELMKPGASVKIYCKATGYTFSRYWIEWVKQRPGHGLEWIGEFIPGSDTTNFNEKFKGKATFTAEISSNTAYMQLSSLTSEDSAVYFCARGGLRRMDYWGQGTSVTVSS
VL: DIVMTQTPAIMSASPGEKVTMTCRASSSVSSTYLHWYQQKSGASPKLWIYTTSTLASGVPARFSGSGSGTSYSLTISSVEAEDAATYYCQQFSDSTWTFGGGTKLEIKR
notes: mouse variable regions on human IgG4 (EU S228P) and human kappa constant regions; also called chimeric 3F10 antibody
For the molecule B3, the MFI in [10] was found to be 61800 MFI; in assay [14], 36100 MFI. In addition, the IC50 came to 0.358 µg/mL with CD47 on Jurkat cells and 7.91 µg/mL in [17]. The EC50 in assay [11] amounted to 19.8 µg/mL; in assay [16] it was 1.11 µg/mL. The Kd in assay [12] stood at 0.767 nM; in assay [13], 1.04 nM. In addition, the “rate of phagocytosis, antibody 1 µg/mL” value with CD47 on HL60 cells [15] worked out at 65.7%. Further, in the assay with CD47 on HL60 cells [15], the “rate of phagocytosis, antibody 10 µg/mL” value was 59.8%.

B4: Xi2H8 (antibody, human IgG4 S228P, kappa, V domains shown)
VH: QVQLKESGPGLVAPSQSLSITCTVSGFSLTNYGVHWVRQPPGKGLEWLGIIWAGGSTNYNSALMSRLSISKDNSKSQVFLKMNSLQTDDTAMYYCARDDYASMDYWGQGTSVTVSS
VL: DAFMTQTPLSLPVSLGDQASISCRSSQSLVHSNGNTYLHWYLQKPGQSPKLLIYKVSNRFSGVPDRFSGSGSGTDFTLKISRVEAEDLGVYFCSQSTHVPYTLGGGTKLEIKR
notes: mouse variable regions on human IgG4 (EU S228P) and human kappa constant regions; also called chimeric 2H8 antibody
In the case of B4, the MFI was determined as 5300 MFI in assay [10] and 952 MFI in assay [14]. Also, the IC50 with CD47 on Jurkat cells was 27 µg/mL; in assay [18], 0.00468 µg/mL. The Kd in [13] was 1.25 nM; in assay [19] it was 0.35 nM. The “rate of phagocytosis, antibody 1 µg/mL” value in the assay with CD47 on HL60 cells [15] was determined as 7.1%. The “rate of phagocytosis, antibody 10 µg/mL” value with CD47 on HL60 cells [15] was 3.5%.

B5: Xi16E5 (antibody, human IgG4 S228P, kappa, V domains shown)
VH: EVQLQQSGPELKKPGETVKISCKASGYTFTNYGMNWVKQVPGKGLKWMGWINTNTGEPTYAEEFKGRFAFSLETSARTAFLQINNLKNEDTATYFCTRFSHLRGPMDYWGQGASVTVSS
VL: B4 VL with F3V, N35Y, V83L, Y101P, L103F
notes: mouse variable regions on human IgG4 (EU S228P) and human kappa constant regions; also called chimeric 16E5 antibody
Take B5: the values for the MFI in assay [10] and in [14] were 3320 MFI and 1310 MFI, respectively. Moreover, the values for the IC50 (with CD47 on Jurkat cells; in [17]) were 4.86 µg/mL and 0.946 µg/mL, respectively. The results for the 50% effective concentration (EC50) in assay [11] and in [16] were 2.03 µg/mL and 0.0879 µg/mL, respectively. The Kd in assay [12] was found to be 9.06 nM; in assay [13], 2.92 nM. For the same molecule, the “rate of phagocytosis, antibody 1 µg/mL” value with CD47 on HL60 cells [15] came out at 11.5%. Further, the “rate of phagocytosis, antibody 10 µg/mL” value in the assay with CD47 on HL60 cells [15] was 28.8%.

B6: Xi14A9 (antibody, human IgG4 S228P, kappa, V domains shown)
VH: EVQLQQSGAEVARPGASVKLSCTVSGFNIEDDYIEWVKQRPEQGLEWIGRIDPANDKTKYAPKFQDKATITGDTSSNTAYLQLSSLTSEDTAVYYCTRPGLRRYYSMDYWGQGTSVTVSS
VL: NIVLTQSPKSMSMSVGERVTLSCKASENVVSYVSWYQQKPEQSPKLLIYGASNRYTGVPDRFIGSGSSTDFTLIISSFQPEDLADYHCGQSYSYPLTFGAGTKLELKR
notes: mouse variable regions on human IgG4 (EU S228P) and human kappa constant regions; also called chimeric 14A9 antibody
Regarding B6, the results for the MFI in [10] and in assay [14] were 32800 MFI and 26500 MFI, respectively. Also, the results for the IC50 (with CD47 on Jurkat cells; in [17]) were 1.28 µg/mL and 0.444 µg/mL, respectively. Also, the EC50 in [11] is 0.541 µg/mL; in assay [16] it was 0.273 µg/mL. In addition, the dissociation constant Kd in [12] is 2.35 nM; in assay [13], 1.58 nM. For the same molecule, the “rate of phagocytosis, antibody 1 µg/mL” value in the assay with CD47 on HL60 cells [15] came to 54.2%. Further, the “rate of phagocytosis, antibody 10 µg/mL” value with CD47 on HL60 cells [15] is 44.7%.
